Test results as given in paper PMC6181972, “Indoleacetate decarboxylase is a glycyl radical enzyme catalysing the formation of malodorant skatole” (Nature Communications, 2018).

Tests used:
[1] = target: the molecule itself; assay: SEC; size exclusion chromatography of purified recombinant OsIAD; column and buffer not told in the text shown (Supplementary Fig. 1c); dimer to monomers
purified protein = substrate: O=C(O)Cc1c[nH]c2ccccc12; assay: purified protein; conditions: activated with 100 nM OsIADAE, 1 mM SAM, 0.2 mM Ti(III) citrate, 20 mM Tris-HCl pH 7.5, 0.1 M KCl, 30 °C, anaerobic

B1: Olsenella scatoligenes indoleacetate decarboxylase (OsIAD) (enzyme, UniProt A0A100YXA1 1-878, looked up)
chain: MQESLVLEMLQTGKTATWPANSGTQDGEGFVDKEVKGVPSTDRTKRMKERFMNAKCKMDMEAPIAYTKAWRMYEGKPLYVRRGLSYKYMLEHLTPVIRPDELITMSKTRYDRGATQVPQFATDFMISFLTQAEDQKDEAKLFSVEGKDEAHTVDEEGWTPVGQLFSIREEEVKPMLEVLEYWKTRCVENVSDEWMKTSFPMYQDYINAKKVGLFPGSGLHAGCDGRWIPAYDVVLGGLNKVIDECKKNIAKTVVTTKDVADKVFFWQGCIYACEGAIAWANNYAKEARRLAEITPEPRKTELLQMAERLERVPAEPPRNFMEAVQALWTAQILIISDSLALGVSPGRWGKLLEPYYEKDLADGVITKEQALEVMEMLRIKFSTEEYITPSLWAAMASSNSFMNLAVGGLDPKTGQCTDNELEDLILQAGINMPTPQPTLSMLLSNKTSDHLALKAAECTKAGNGYPAWFNYDMMVEHNLWCYADEGITMEDARNCALSGCVENGLAGTGHPIAHPAFYNEGKTIELALHEGVDPRTGIKVMDGIKPVESYEDVWNNFVKIREHFMRVYMRYWNEVVACQRDIHPKIMGSIFMHDCVENGRPVDNLGCRYNGSVTLLDSGTVNVVNGLAAMKKLIWEDHKYTYAEFKEAMDNNFGFVLGAEKGNFSMLNQEIDPEKHMKYAQIHRDILNCPKFGNDDDFVDDIFVKVWQDYDRVTGSETTYNGYRWITAALSISAHGPHGRVTGATPDGRLAGVTLCDGILSASPGTDVNGPIALIRSGVKLDPTTFASVQLNMKFHPSAIRGEEGSKNFVDFIRSYFNMGGYHVQFNIVDSKMLRDAQDKPQNYRDLMVRVAGFSAYWNELGKPIQDEVIARTEYDAL
notes: Indoleacetate decarboxylase (glycyl radical enzyme) of Olsenella scatoligenes, UniProt A0A100YXA1; codon-optimized synthetic gene in pET-28a-HT (His6-tag, TEV protease cleavage site, then the construct); also called HT-IAD; A0A100YXA1; source: E. coli BL21 (DE3), purified (TALON, ammonium sulfate precipitation, G25 desalting)
With B1 the “stoichiometry N” value [1] was 2, the Km (purified protein) was 370 ± 60 µM and the kcat (purified protein) was 2.0 ± 0.1 s^–1.
